Data: the supplement of paper PMC11136658

Tested on: peptide library, one residue held at a place counted from the Y acceptor
Test: relative phosphorylation of the sub-library (ratio to the mean residue at this position); higher = residue favoured
Method in brief: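 Within 384-well plates, purified recombinant kinases phosphorylated biotinylated Tyr-centred peptide library mixtures over 90 min using 50 μM ATP spiked with γ-32P-ATP; each mixture fixed one residue at one position from −5 to +5. Streptavidin membrane capture, rinsing, phosphorimaging and ImageQuant gave the intensities. These were normalized per position to the sum of the 18 randomized residues (16 for the Ser/Thr-free library) and multiplied by that number.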

DDR2, construct: aa522-end, human, sequence (Q16832 522-855, looked up): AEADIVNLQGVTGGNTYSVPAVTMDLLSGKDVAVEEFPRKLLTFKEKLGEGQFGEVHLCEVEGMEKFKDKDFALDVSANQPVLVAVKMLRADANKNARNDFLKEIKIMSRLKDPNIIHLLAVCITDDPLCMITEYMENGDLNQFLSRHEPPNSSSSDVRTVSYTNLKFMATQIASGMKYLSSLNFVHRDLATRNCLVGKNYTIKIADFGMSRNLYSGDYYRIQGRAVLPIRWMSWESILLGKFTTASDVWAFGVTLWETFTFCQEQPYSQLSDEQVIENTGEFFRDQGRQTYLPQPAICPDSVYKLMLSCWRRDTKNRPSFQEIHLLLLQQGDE
EPHA2, construct: aa561-end, human, sequence (P29317 561-976, looked up): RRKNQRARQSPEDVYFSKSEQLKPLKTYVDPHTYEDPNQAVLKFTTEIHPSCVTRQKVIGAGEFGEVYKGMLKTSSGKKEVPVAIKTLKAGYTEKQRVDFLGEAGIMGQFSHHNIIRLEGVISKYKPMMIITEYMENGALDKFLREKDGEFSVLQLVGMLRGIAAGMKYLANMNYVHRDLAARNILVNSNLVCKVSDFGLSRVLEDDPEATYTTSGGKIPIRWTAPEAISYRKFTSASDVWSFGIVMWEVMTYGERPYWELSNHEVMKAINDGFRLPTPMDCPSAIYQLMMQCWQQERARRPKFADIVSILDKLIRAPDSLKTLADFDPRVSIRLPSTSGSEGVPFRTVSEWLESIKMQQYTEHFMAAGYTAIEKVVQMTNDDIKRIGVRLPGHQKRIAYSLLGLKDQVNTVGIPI
ABL2, construct: aa38-end, human, sequence (P42684 38-1182, looked up): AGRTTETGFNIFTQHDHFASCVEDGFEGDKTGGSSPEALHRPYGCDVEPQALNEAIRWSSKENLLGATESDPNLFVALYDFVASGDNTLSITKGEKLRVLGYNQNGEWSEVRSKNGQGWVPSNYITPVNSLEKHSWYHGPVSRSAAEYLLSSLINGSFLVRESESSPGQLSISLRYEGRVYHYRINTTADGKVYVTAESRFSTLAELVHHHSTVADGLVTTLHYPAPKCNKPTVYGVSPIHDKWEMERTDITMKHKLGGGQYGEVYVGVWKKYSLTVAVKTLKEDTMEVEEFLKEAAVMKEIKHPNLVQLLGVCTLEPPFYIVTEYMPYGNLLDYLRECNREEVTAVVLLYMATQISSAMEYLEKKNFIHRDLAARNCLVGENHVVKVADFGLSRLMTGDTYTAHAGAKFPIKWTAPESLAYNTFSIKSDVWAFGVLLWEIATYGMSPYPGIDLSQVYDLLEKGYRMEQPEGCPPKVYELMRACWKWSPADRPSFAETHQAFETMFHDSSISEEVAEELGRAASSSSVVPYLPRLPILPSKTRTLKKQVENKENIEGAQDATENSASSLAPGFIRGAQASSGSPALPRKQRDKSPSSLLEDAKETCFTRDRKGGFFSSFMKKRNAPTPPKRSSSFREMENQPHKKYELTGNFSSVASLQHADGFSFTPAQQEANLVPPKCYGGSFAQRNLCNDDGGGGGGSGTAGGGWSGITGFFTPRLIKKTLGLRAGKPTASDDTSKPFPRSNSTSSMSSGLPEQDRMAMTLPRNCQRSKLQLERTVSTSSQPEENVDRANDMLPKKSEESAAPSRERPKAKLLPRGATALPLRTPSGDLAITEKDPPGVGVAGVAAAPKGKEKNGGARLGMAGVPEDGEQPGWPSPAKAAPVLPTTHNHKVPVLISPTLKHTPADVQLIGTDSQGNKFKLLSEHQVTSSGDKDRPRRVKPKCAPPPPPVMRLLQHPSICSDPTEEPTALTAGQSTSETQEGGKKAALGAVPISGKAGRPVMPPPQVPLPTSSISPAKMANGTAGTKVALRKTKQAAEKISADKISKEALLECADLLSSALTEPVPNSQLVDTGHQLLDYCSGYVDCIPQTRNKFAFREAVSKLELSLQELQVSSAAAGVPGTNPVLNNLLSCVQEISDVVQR

ABL2, construct: aa38-end, human (from UniProt P42684)
relative phosphorylation
Conditions	at +1	at +2	at +3	at +4	at +5	at -1	at -2	at -3	at -4	at -5
A fixed	2.85	1.32	0.871	0.935	1.01	0.717	1.18	1.04	1.16	1.1
D fixed	0.701	0.534	0.245	0.662	0.681	1.01	1.01	1.23	1.32	1.07
E fixed	0.884	1.2	0.199	0.735	0.686	1.45	1.38	1.88	1.69	1.13
F fixed	1.07	0.802	1.21	1.18	0.822	0.756	0.548	0.786	0.675	0.828
G fixed	1.26	0.647	1.23	1.2	1.27	0.49	1.24	1.15	1.33	1.29
H fixed	1.06	0.833	0.868	1.13	1.02	1.62	0.933	1.02	0.859	1.12
I fixed	0.517	0.843	1.46	0.736	0.781	2.9	0.867	0.598	0.774	0.716
K fixed	0.636	0.836	0.439	1.2	1.15	0.425	0.846	0.785	0.926	1.01
L fixed	0.857	0.904	1.47	0.813	0.85	1.55	0.885	0.758	0.87	0.831
M fixed	1.18	0.923	0.861	1.04	1.05	1.05	0.742	0.852	0.907	0.909
N fixed	0.492	1.06	0.756	0.988	1.02	0.674	1.11	1.25	0.871	1.27
P fixed	0.161	1.14	2.59	0.968	1.57	0.556	1.36	1.26	1.34	1.24
Q fixed	1.33	0.97	0.472	1.14	0.969	0.856	1.21	0.957	1.21	1.08
R fixed	1.03	1.27	0.684	1.43	1.4	0.451	0.896	0.883	1.07	1.18
S fixed	1.16	1.24	1.18	0.997	1.13	0.495	1.18	1.12	0.812	0.966
T fixed	0.802	1.42	1.09	0.919	1.11	1.03	1.05	1.11	0.74	0.923
V fixed	0.938	1.33	0.988	0.872	0.79	1.54	1.13	0.771	0.828	0.84
W fixed	1.05	0.737	1.39	1.04	0.69	0.421	0.422	0.552	0.623	0.506
pThr fixed	0.853	1.01	0.2	0.405	0.454	0.971	1.03	1.36	1.07	1.06
pTyr fixed	1.61	1.79	0.391	0.696	0.52	3.96	1.26	1.9	1.49	1.26

DDR2, construct: aa522-end, human (from UniProt Q16832)
relative phosphorylation
Conditions	at +1	at +2	at +3	at +4	at +5	at -1	at -2	at -3	at -4	at -5
A fixed	2.33	0.781	0.51	0.457	0.507	1.2	0.969	0.938	0.924	1.1
D fixed	0.221	0.71	0.309	1.13	0.445	1.83	0.707	0.692	0.688	0.848
E fixed	0.206	1.66	0.283	1.36	0.393	0.583	0.635	0.567	0.724	0.771
F fixed	0.905	0.738	1.38	2.06	2.29	0.517	0.358	1.13	0.728	0.723
G fixed	0.361	0.37	0.296	0.372	0.632	0.617	1.19	1.09	1.43	1.38
H fixed	0.894	0.92	0.901	1.63	0.817	1.14	1.58	1.82	1.29	1.17
I fixed	1.13	1.08	3.3	1.09	2.43	0.879	0.316	0.472	0.627	0.548
K fixed	0.899	0.687	0.35	0.56	0.607	0.653	1.85	1.44	1.6	1.42
L fixed	0.602	1.42	1.94	0.851	1.4	0.828	0.449	0.466	0.581	0.702
M fixed	1.12	1.3	2.09	0.824	1.08	0.593	0.597	0.534	0.933	0.787
N fixed	0.502	1.03	0.365	1.05	0.747	2.72	1.66	1.3	0.985	1.01
P fixed	0.745	0.655	0.306	0.383	0.962	1.57	1.55	1.15	1.52	1.45
Q fixed	0.823	0.933	0.505	1.02	0.56	0.829	1.1	0.917	1.01	0.996
R fixed	1.38	0.825	0.49	0.88	0.861	0.656	2.03	1.96	1.89	1.67
S fixed	1.04	1.14	0.464	0.701	0.586	0.989	1.21	0.968	0.876	1.02
T fixed	1.54	1.18	0.991	0.855	0.688	1.11	1.03	0.906	0.858	0.905
V fixed	2.79	1.32	1.95	1.02	1.76	0.839	0.372	0.553	0.651	0.73
W fixed	0.511	1.24	1.58	1.76	1.24	0.438	0.383	1.1	0.679	0.754
pThr fixed	0.698	1.61	0.5	1.87	0.616	0.706	0.487	0.467	0.612	0.696
pTyr fixed	0.68	2.07	0.439	2.16	0.38	0.474	0.473	0.614	0.613	0.75

EPHA2, construct: aa561-end, human (from UniProt P29317)
relative phosphorylation
Conditions	at +1	at +2	at +3	at +4	at +5	at -1	at -2	at -3	at -4	at -5
A fixed	1.31	0.627	0.592	0.785	0.992	0.392	1.11	0.791	1.04	0.971
D fixed	0.849	1.83	0.379	0.913	1.26	3.48	1.25	1.54	1.25	1.23
E fixed	2.74	2.13	0.34	1.28	1.22	2.02	1.74	1.76	1.41	1.03
F fixed	0.725	1.35	1.4	1.13	1.1	0.943	0.617	1.32	1.09	1.12
G fixed	0.517	0.298	0.508	1.15	1.15	0.198	1.22	0.847	1.26	1.15
H fixed	1.65	0.815	0.725	1.29	0.993	0.836	0.817	1.06	0.843	0.916
I fixed	1.84	1.08	3.27	0.777	0.778	1.92	0.914	0.914	0.999	1.04
K fixed	0.165	0.339	0.183	0.567	0.616	0.17	0.657	0.502	0.737	0.873
L fixed	0.892	0.944	1.84	0.662	0.877	1.83	0.82	0.873	1.05	1.05
M fixed	1.62	0.988	1.64	0.989	0.87	0.733	0.654	0.809	0.986	0.978
N fixed	0.322	1.07	0.395	0.718	0.8	1.83	1.3	1.07	0.802	1.06
P fixed	0.15	0.54	1.33	1.52	1.67	0.257	1.24	1.08	1.07	0.972
Q fixed	0.852	0.723	0.628	0.844	0.773	0.351	1.01	0.774	1.05	0.986
R fixed	0.18	0.481	0.262	0.692	0.613	0.219	0.832	0.607	0.871	0.92
S fixed	0.61	0.691	0.426	1.02	1.02	0.366	1.39	0.923	0.815	0.835
T fixed	0.783	0.816	0.621	0.886	1.22	0.931	1	0.903	0.79	0.827
V fixed	1.81	1.05	2.07	0.759	0.827	0.974	0.838	0.888	0.802	0.9
W fixed	0.979	2.23	1.4	2.02	1.21	0.554	0.61	1.34	1.12	1.15
pThr fixed	2.09	2.85	0.454	1.09	0.852	3.53	0.956	0.833	1.22	1.26
pTyr fixed	3.93	7.03	1.08	1.44	1.31	4.75	1.15	1.43	1.54	1.4
